This note sets out measurements from the domain aggregation screens of Martell et al. (2025).
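Also: 20 min heating vs room temperature control held 20 min.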

The nature of the data set: soluble fraction after stress (log2 fold change); higher = more stays soluble; pooled small domains, quantitative proteomics. The note with it: stress: 75 degC.
With “HMVITATYTDFMDALEADEVKQVQFSSTEINYTIEKGGHVQYFKTGVVDNPQLPQILREKGVTYAAEIP”, the “soluble fraction (log2)” value was -0.512. In the case of “HMVITDPFFLEPENLVKDAVALMEKYRISGVPITKKGKLVGILTNRDLRFESNYEQPIANVMS”, the “soluble fraction (log2)” value was found to be 0.137.

Consider “HMVITISEADVSGTYTKSITQGDWKYIRTWTPFEDERLYDLAKDPMELRDLAPAAPSKLAELRELLSALVS”, for which the “soluble fraction (log2)” value was -1.4. On to “HMVIVMRKDADAASIEKVVSEVKSRGFMPHVSEGESRTLIGAIGPAPTEELREHFAGLAGVETVVRITK”, for which the “soluble fraction (log2)” value is -0.533. For the sequence “HMVKDIEFSLPLEQDYYKVLISVKDSQGKRQVYEELHRAGDTVYAAVRYYGSGELEIHLNGKFYKTIK”, the “soluble fraction (log2)” value is -0.868. For the sequence “HMVKDLEIETIRLNNLLASDAEEVLKSLGGAKPTYKAVAVPGSNSLVIEGTKADLIKLKSIINALEDGS”, the “soluble fraction (log2)” value worked out at 0.00865. On to “HMVKETNYSFFLKQIDAGTVEQVQIEDTEIKFKVSTADGKEQVYSTVRVEDPDLVDRLYSKGNIDFTGN”, for which the “soluble fraction (log2)” value was -0.0797.

In the case of “HMVKIIHYEVYANRGDGWKLVDQFSADQRQEAVNLAKEIETEDQVAVKIIREIFDVQDNTYQESVEYIG”, the “soluble fraction (log2)” value was -1.59. In the case of “HMVKLDDLTGQDKATAEATITNSGLKYSEQQEFSDEVEAGKVIRTDPGAGTSSLKAGDTVTVYVSRGPEN” it was 0.215; in that of “HMVKNYYEILEVDKKASPEVIEKAYKTLAKKYHPDLQEAENNGQYEEKMKEINEAYSVLSDEFKRRTYDEQ”, 0.123. On to “HMVKSYEVPDVSNLTVLEAEAKLQEMGFEIDEEQKEISSSDIESGRVVKTSPQAGSKRKEGAIITLYVSSG”, for which the “soluble fraction (log2)” value came to 0.65. As for “HMVKTANVAYSEFLKLVESDNISDVSIVGRTITGHLDDGTKFSTYTPPNDPSLIDKLTRKNVIIKSAPE”, the figure is 0.0585. In the case of “HMVKVEVKPNVLQWVIKRMDNFDRLKDQFPNIDKWINQESQPTLKQLEKLAKMTAVPLGYFFLPNPPEEK” it was -1.12; in that of “HMVLELRIGQIVRGVLLQLVGEREGIVSVGGVPVRARLEAEIPLGRGVMLQVQPGSDANNILLKPV”, -3.01.

In the case of “HMVLENLKKFIDSKGISVSAFEKSIGMSNNSFRKSLNSGGHIGSDKLENILKIYPELNPVWLLQGEGEML”, the “soluble fraction (log2)” value was -0.589. In the case of “HMVLGSSVAMGQKIGDSDLTWVEVPLSSAFDRFLSEPEWRGSSDLVAARLLEAGVFLTEDDVVE” it was 0.0533; in that of “HMVLLGAAIRELRIQKGITIEELAEMSGLSTGLISKIERDLGNPSISSLRKISRALGVPTAFFFA”, -3.28; in that of “HMVLSKGAKELLDFIMREGEVTTSKVVQKFGGSAQNASAKLKKLYATGLILGSKAVAESGGLEFVYKA”, 0.256. As for “HMVLSVRERMGIVLEKVNTETFTDFKELFTVEEGRAGAIVSLLAILQLMKDSLIQLVQNEPNGPIYVKAA”, the figure is -0.879; as for “HMVLTSFHDNFPKTGTTYTVRSGDTISGIATKFGSTRDWIQNANEISHPKYLQVGRTLFIPH”, -0.302; as for “HMVMATPHNTAKAGDIAKTVIMPGDPLRAKYIADNYLDNAVQFNVVRNIYGYTGVYRGTDISVMASGM”, 0.212. Consider “HMVMETLAERINTALQTKGLSVNALARRVGVSYPAMRKITKGETLNPKFLFEIAEALGVSVEWLKTGEGSP”, for which the “soluble fraction (log2)” value is -1.34. As for “HMVMNKQEFLKILRDTLQSQLSSRETENHVEYYRTYIEEQMREGKTEIEILDVLGDPRLIARTILET”, the figure is -0.193; as for “HMVMSTDAELILEYLAKHQGEMEITDKSSPELIMDTFNMSKGAFKRALGSLYKSKTVVIESTKVLLNT”, -1.44; as for “HMVNDQSIYASEGYVHIRSGKPVSLRIYTILGALYRHEERLVGDHVIALPRGLYIVVLNHTAKKIMV”, -0.657. As for “HMVNEALDEFFVGLKNLYESATGKPAIAGAHFDGEPKTDFEKLMYLGYQIIRPAQAYPSALKAYERAIARS”, the figure is -0.145; as for “HMVNHEERKRLIAEATWRTISHVGIEQASVRTIAKEAGLSLGALRYYFTTQEELLRFSMQLVQERV”, -0.0767; as for “HMVNIEAEVGRRLRQLRARRGLSLRALADLSGLNVNTLSLIENSKTSPSVSTLQQLARSLQVPITTFFESD”, -1.36. For “HMVNKQERTYTILRDRIHSGSFAPLERLNIDALARELGVSPIPVREALRRLEAEGWVRFTPNVGAVVSP”, the “soluble fraction (log2)” value is -0.509.

Consider “HMVNLLVTPLEELEINFRTLRALRKYNIYQLEDLLRFIKYNGFDALRIVPGMGIKSTEQLYEKLKDKNI”, for which the “soluble fraction (log2)” value is -0.112. For the sequence “HMVNTVEVQGNTIYSAEEIRSASGIQKGDNLFTLNKEAAAGSIKASLPYVETVSIIRFLPDKIVIEVKE”, the “soluble fraction (log2)” value is -0.57. As for “HMVNVLKNSTVIDLVKNNLSDALIISLIRRAKVDFSLMTDDVIELSGKGVSPAVIMEMRQAMIRQASEIQN”, the figure is -0.318; as for “HMVNVTEAIDLENGTGKLSGTFNHEPKSAEEIIFLLKIDTNKWKLSQYWNKQMGDHWRVSALISQI”, -2.82. In the case of “HMVPAMEVALEDARRAIEQVVSGERTSVQLSSQEAMIRKLQHQMAKDANLFSRSSGVEPQRRVTIYTN” it was 0.0142. In the case of “HMVPHQPRVWTNTAGKTITAAFVRFNAAGRKVSLKLEKGRQVELPLASLSGNDVDWIKEHVPEAMSNQE” it was -1.06. In the case of “HMVPISGADFEKLSDYILQKAGAGSIQVKELLAGLKGMHEKNLWKAIDYLLAEEKIRIDKGGNISVK”, the “soluble fraction (log2)” value is -0.322.

For “HMVPQAVQDIKAYLASGALPYIGPATAKKIVAMFGSDALDVIAEHPEQLTAIRGLNEEKANAIHQEFRRQF”, the “soluble fraction (log2)” value is -0.259.

On to “HMVPSSHNIAQKVKQIKINDLWLDVRERYIYLKNLYLSHPLEKDHPSFIVYVEAVNQIYNQYF”, for which the “soluble fraction (log2)” value is -0.0707. In the case of “HMVQDDLRELEGISTELLAKLADAGITNRDDLADLAIDELVAITGQSEDDAKALIMKAREHWFAGDA” it was 0.0246; in that of “HMVQIIQLQGTDKRLYELVAPLVMNPEILKQNYNYPFRTSEDFVWFVAVDKKKVIGFIPVEEKKKEYVI”, -0.108; in that of “HMVRKGEINFDQLSVRARNALRNMNILFEKEILKLTEYDLKSIPNLGVKTTNELLSYIKRLQTNQKEE”, -1.47. Regarding “HMVRRSERLHALTESLRRSGNRGRTAEQLATEFEVSVRTIKRDLVALEASGLPLWSRPGPGGGYGLLS”, the “soluble fraction (log2)” value was -0.953. With “HMVRTIKILGIKHNINLYYKNVKVPTMNVKNQTLEIILPNKYKKFQEEQILKVLTQKLYDKIAETEIEKIK”, the “soluble fraction (log2)” value was -1.11.

As for “HMVSAEQNTLEFIKENVKEDVIEDDIEFYKSLLEDWSVEVDNSSKLLDPGNNNSLLAVIAYSIENEL”, the “soluble fraction (log2)” value came out at 0.232. As for “HMVSDAWITGKVKSQLLADDVTPGMKIDVDTEDRIVSLKGTVPSLTARNEAIRIASHTKGVRTVDADELIV”, the figure is 0.17. As for “HMVSFAEQASDWLAHFDRLGDVGPDTTLTDLTARDAEFSAWVNEGIHHRVAFLETLAAWHRTER”, the figure is -0.627; as for “HMVSGLEILKIQVQDHPSDWRWALLLARTHYENGNREAAVRTLRPLQRLHPDRLEVMTLWALLA”, -0.194; as for “HMVSGSPTVDILMQRGLEYQQQENLEAARDAFDRAINLKPDYAEAWNRRAVLFFNEGKYDEAIADLETAIT”, 0.136.

Consider “HMVSKEELANSIYENKTADELGNIVLRKGKYSGEMLRTIYVKDIGYLEWHSKQSYEYSNAVKWYLKKLE”, for which the “soluble fraction (log2)” value is -1.37.

Consider “HMVSLEEIINDLTSRIQTAVKMRFSDFVQNRKERVGVIVSFLGMLELVKQGIIDIKQEGHFADIEMETA”, for which the “soluble fraction (log2)” value was -0.347. As for “HMVSLSENQKIVLESLNTAMSARELMEILNLSDISHFRRNILNPLLLEGLIVRTKPDKPKSSKQKYIKANF”, the figure is -1.69. In the case of “HMVSPEVEMLRAAVETMSERQKQVYELHYLRGFNVKETAAILGMSSPTVTAHKKRIMEIIKKFFE” it was -1.46. In the case of “HMVSPFQQQIADKVHNEIIAAKFNYDNATNENERLLAQLQAKKARELANQYGLDMSSYGADTTAERS” it was 0.61; in that of “HMVSSAEQQARDKESGMILVQEAGGPDKARALVEKMRQDIRNPALDGTRRQMLRGHVARIELALAELETG”, -0.0254. In the case of “HMVSVGDIFAGRIISNENGHLLLQLLDGSKISAQTVTDLKYNIGDVLNLEIIEEKQGLIFVRQT”, the “soluble fraction (log2)” value is -2.05.

As for “HMVSVLGRRIKELRLQNSMTQMQLAKKLGYKGNSLVAGWELGKNYPSVSSIKRLSEIFDTDLMKYVG”, the “soluble fraction (log2)” value was -2.53. Regarding “HMVTDTGAIEKVIDEVIAANPKQVQEIADQRAAGHEKPKTLGWLVGQIMKASGGKVNPAAVNEILLKKLG”, the “soluble fraction (log2)” value was determined as 0.0887. Regarding “HMVTFDEISQSLVRDVAARRSLSVQTLHAMVDRYNAGSSINAVANQYGIDRLKLREILIELGVHVAT”, the “soluble fraction (log2)” value was -2.4. As to “HMVTLQEVKQYLRIDFEEEDPLLLSLLATAKQQVMNVGRMDEAQLSEHEDTARTAILYAVSYLYENRN”, the “soluble fraction (log2)” value is -1.82. As for “HMVTPAQQARDTLLGALVGLARATTSEPKTDDTDVVLNAGLRLAAQPDAPEERLQRMLAIVQTEKHRV”, the figure is 0.138; as for “HMVTVNAFGKSGPEPAAMTKEALAKGADEVRVIVDSPTAAASVRDFLIGAGLRVQLQDDEGQLIVVGEKK”, 0.318.

Turning to “HMVVDEQRIQTLVSAAEQNSSDPVPRVTLGNLYFDAEQFEEAVKWYEQALALDPRNVNVSTDLGVGYYY”, the “soluble fraction (log2)” value amounted to 0.113. As for “HMVVKLTQEQDRFIKTFNDKSLAFYYISSWGWGSFLRNGIGGVYEGDKTPFTLDEKEKMLNAIINGYEVI”, the figure is -2.02; as for “HMVVKSPLEMAFDKFREMRKKIRKPMTERAEELIWKELSKLAGEDSDLKIEILEQSIRNGWQDVYAVK”, -0.623; as for “HMVVLPGEVVALKIIQTGSSKDQGVGYLEDGTMVVVDGAKNSIGKTIEIQISRSHQTVAGRMLFGIAMS”, -2.72. Turning to “HMVVQTELVRISITSLSGEDIRRLVQIKVVGATIEPFEGGGFLITGTAEQIAKAKDFLNSMSTEF”, the “soluble fraction (log2)” value is -2.42. As for “HMVVRKHDRYYTPEHRKLLMDTYERTNKYPTKQDMSELAKIIGVLPIKILWWYTHRRRQDRRKGEESSSP”, the figure is 0.0496; as for “HMVVTMEKIVVNDGGIRIDTYLADKLNISRSKVAKMLENNILVNNVKVKPSYKVTNNDIIEVEEYV”, -1.86; as for “HMVVVLPGETIKIDLIREGKDKQALGYLEDGTMIVVDNAKHLIGKNVEIEIDNVLPKEAGRVIFASLHGA”, -0.388.
